Source: patent US20220396620A1 (Takeda / Millennium, published 2022)
Positions count from the first letter of the chain named.

B1: M7 mouse anti-huCB-1 antibody (antibody, V domains shown)
VH: EVQLQQPGAELVRPGASVKLSCKASSYTFTRYWMNWVKQRPEEGLEWIGMIDPYDSETHYNQKFKDKAILTVDKSSSTAYMQLSTLTSEDSAVYFCARSQPRYYAMDYWGQGTSVTVSS
VL: DIQMSQSPSSLSASLGERVSLTCRASQEISGFLSWLQLRPDGTIKRLIYAASSLDSGVPKRFRGSWSGSDYSLTISSLESEDFADYYCLQYSSYPYTFGGGTKLEIK
B2: M4 mouse anti-huCB-1 antibody (antibody, V domains shown)
VH: QVQLQQSGAELVRPGSSVKISCKASGYEFNYYWMNWVKQRPGQGLEWIGQIYPGDGDINYNGKFKGKATLTSDKSSSTVYMQLSSLTSEDSAVYFCSRSKGNPFAYWGQGTLVTVSA
VL: DIQMTQTTSSLSASLGDSVTISCRASQGIRNYLNWYQQKPDGTVKLLIYYTSRLHSGVPPRFSGSGSGTDYSLTISNLEQEDLATYFCQQGNTLPYTFGGGTKLEIK
B3: M5 mouse anti-huCB-1 antibody (antibody, V domains shown)
VH: QVHLQQSGAELVRPGSSVKISCKASGYEFSYYWMNWVKQRPGQGHEWIGQIYPGDGDTNYNGKFKGKATLTADKSSSTAYMQLSSLTSEDSAVYFCARGREAAWFAYWGQGTLVTVSA
VL: DIVLAQSPASLAVSLGQRATISCRASQSVSSFRYSYLHWYQQKPGQPPRLLIKYASNLESGVPARFSGSGSGTDFTLNIHPVEEEDTATYFCQHSWEIPFTFGSGTKLEIKR
notes: The humanized M5-H1 and M5-H2 carry the CDRs of the un-numbered VL, so that one may be the functional light chain
B4: M2 mouse anti-huCB-1 antibody (antibody, V domains shown)
VH: EVQLQQSGPELVKPGTSVKISCKASGYTFTDYNMHWVKLGKSLEWIGYFYPDDGGSGYNQKFKGKATLTIDKSSSTAYMELHSLTSEDSAVYYCARGYGNSWGTYWGQGTLVTVSA
VL: EIVLTQSPTTMAASPGEKITITCSASSRISSNYLYWYQQKPGFSPKLLIYRTSNLASGVPARFSGSGSGTSYSLTIGTMEAEDVATYYCQQGSSIPYTFGGGTKLEIK
B5: M6 mouse anti-huCB-1 antibody (antibody, V domains shown)
VH: EVQLQQSGPELVKPGASVKISCKASGYTFTDYNLHWVKHGKSLEWIGYIYPYDGDTGYKQKFKGKATLTADKSSSTAYMELRSLTCEDSAVYYCARGYGNSWGAYWGQGTLVTVSA
VL: B4 VL with S26T, R28S, Y35H
B6: M7-H8 humanized anti-CB1 antibody (antibody, human IgG1, kappa, L234A L235A, V domains shown)
VH: QVQLVQSGAEVKKPGASVKLSCKASSYTFTRYWMNWVRQAPGQGLEWIGMIDPYDSETHYNQKFQGRATLTVDTSTSTAYMELSSLRSEDTAVYFCARSQPRYYAMDYWGQGTTVTVSS
VL: DIQMTQSPSSLSASLGDRVTLTCRASQEISGFLSWLQLKPGKTIKRLIYAASSLDSGVPSRFSGSWSGTDYTLTISSLQPEDFADYYCLQYSSYPYTFGGGTKLEIKR
B7: M7-H11 humanized anti-CB1 antibody (antibody, human IgG1, kappa, L234A L235A, V domains shown)
VH: B6 VH with L20V, I48M, M50I, H59S, N61A, A68V, L70M, V72R, A79V, F95Y
VL: B6 VL
B8: M7-H10 humanized anti-CB1 antibody (antibody, human IgG1, kappa, L234A L235A, V domains shown)
VH: QVQLVQSGAEVKKPGASVKVSCKASSYTFTRYWMNWVKQRPGEGLEWMGMIDPYDSETHYNQKFQGKVTMTVDKSSSTVYMELSSLRSEDTAVYFCARSQPRYYAMDYWGQGTTVTVSS
VL: B6 VL
B9: M7-H14 humanized anti-CB1 antibody (antibody, human IgG1, kappa, L234A L235A, V domains shown)
VH: B6 VH with L20V, I48M, A68V, L70M, V72R, A79V, F95Y
VL: B6 VL with L15V, T43A
B10: M7-H15 humanized anti-CB1 antibody (antibody, human IgG1, kappa, L234A L235A, V domains shown)
VH: B8 VH
VL: B6 VL with L15V, T43A
B11: M7-H13 humanized anti-CB1 antibody (antibody, human IgG1, kappa, L234A L235A, V domains shown)
VH: B6 VH
VL: B6 VL with L15V, T43A
B12: M7-H12 humanized anti-CB1 antibody (antibody, human IgG1, kappa, L234A L235A)
heavy: not shown
light: DIQMTQSPSSLSASVGDRVTLTCRASQEISGFLSWLQLKPGKAIKRLIYAASSLDSGVPSRFSGSWSGTDYTLTISSLQPEDFADYYCLQYSSYPYTFGGGTKLEIKRTVAAPSVFIFPPSDEQLKSGTASVVCLLNNFYPREAKVQWKVDNALQSGNSQESVTEQDSKDSTYSLSSTLTLSKADYEKHKVYACEVTHQGLSSPVTKSFNRGEC
B13: M7-H9 humanized anti-CB1 antibody (antibody, human IgG1, kappa, L234A L235A, V domains shown)
VH: B6 VH with L20V, I48M, A68V, L70M, V72R, A79V, F95Y
VL: B6 VL
B14: M7-H16 humanized anti-CB1 antibody (antibody, human IgG1, kappa, L234A L235A, V domains shown)
VH: B6 VH with L20V, I48M, M50I, H59S, N61A, A68V, L70M, V72R, A79V, F95Y
VL: B6 VL with L15V, T43A
B15: M1 mouse anti-huCB-1 antibody (antibody, V domains shown)
VH: QVQLQQSGAELVRPGVSVKISCKGSGYTFTDHALHWVKQSQARSLEWIGIISTYYGDATYNQKFKGKATMTVDKSSSTAYMELARLTSEDSAFYYCARGGLYYGTNYRAMDYWGQGTSVTVSS
VL: DIVMTQSQKFMSTSVGDRVSVTCKASQNVGSNVAWYQQKPGQSPKALIYSASYRYSGVPDRFTGSGSGTDFTLTISNVQSEDLAEYFCQQYNNYPFTFGSGTKLEIK
B16: M3 mouse anti-huCB-1 antibody (antibody, V domains shown)
VH: QVQLQQSGPELVRPGVSVKISCKGSGYEFTDYALHWVKQSHAETLEWIGLITTYYGDTNYNQKFKGKATMTVDKSSSTAYMELARLTSEDSAIYYCARGGYYYGTDYRYFDVWGAGTTVTVSS
VL: DILLTQSPAILSVSPGERVSFSCRASQSIGTNIHWYQQRPNGSPRLLIKYASESISGIPSRFSGSGSGSDFTLSINSVESEDIADYYCQQSITWPLTFGAGTKLELK
B17: M8 mouse anti-huCB-1 antibody (antibody, V domains shown)
VH: QVQLQQPGAELVKPGASVKLSCKASGYTFTDYWMHWVKQRPGHGLEWIGEIYPSSGRANYNGNFKRKATLTVDKSSSTAYMQLSSLTSEDSAVYYCARSRGNYLPYWGHGTPVTVSA
VL: QIVLTQSPAIMSASLGERVTMTCTAGSTVSSSYLHWYQQRPGSSPKLWIYGTSNLASGVPARFSGSGSGTSYSLTISSMEAEDAATYYCHQYHRSPPTFGGGTKLEIK

Experiments:
[1] = target: T1, human cannabinoid receptor type 1 (CB1) (human, UniProt P21554 1-472); test: FACS, titration on CB1 over-expressing CHO cells
T1 construct: DiscoverX cAMP Hunter CHO-K1 CNR1 Gi cells for cAMP and pERK assays; also called huCB1; huCB-1
T1 sequence (P21554 whole entry): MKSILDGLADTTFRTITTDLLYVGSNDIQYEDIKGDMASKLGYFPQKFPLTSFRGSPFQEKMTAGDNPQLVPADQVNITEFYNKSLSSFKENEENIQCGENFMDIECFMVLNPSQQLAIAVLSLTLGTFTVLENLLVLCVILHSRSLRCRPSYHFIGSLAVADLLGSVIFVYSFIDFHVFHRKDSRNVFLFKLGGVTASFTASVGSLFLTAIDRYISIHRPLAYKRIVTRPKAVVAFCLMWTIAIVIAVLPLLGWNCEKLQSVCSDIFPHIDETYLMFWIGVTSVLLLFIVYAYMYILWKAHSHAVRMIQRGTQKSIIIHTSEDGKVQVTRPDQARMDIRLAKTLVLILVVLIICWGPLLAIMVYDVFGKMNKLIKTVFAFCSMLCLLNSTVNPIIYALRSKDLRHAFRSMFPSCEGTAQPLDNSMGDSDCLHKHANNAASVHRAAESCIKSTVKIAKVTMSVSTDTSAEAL
Procedure: (§1) Antibody binding was tested in a fluorescence activated cell sorting (FACS)-based assay for the ability of the mouse anti-CB1 antibodies to bind parental CHO cells, human CB-1 overexpressing CHO cells and mouse CB-1 overexpressing CHO cells to obtain binding curves and EC50 values. The three cell lines were harvested, washed and dispensed at 1×10⁵ cells per well of a v-bottomed 96-well polycarbonate FACS plates (Corning, Corning, N.Y., Cat. No. 3357) in 50 μl of FACS buffer (1×PBS/2 mM EDTA and 1% FBS (ThermoFisher Scientific, Anaheim, Calif.; Cat. No. 10438-026). Serial dilutions of the antibodies were prepared at 2× concentrations starting at 200 nM and serially diluted 3-fold. The titrated antibodies were added to the plates containing the three different cell lines (parental, human and mouse CB-1 CHO cells) and incubated at 4° C. for 1 hour. The plates were washed 3× with FACS buffer. […] None of the eight functional antibodies tested were mouse cross reactive (FIG. 3).

[2] = target: T1, human cannabinoid receptor type 1 (CB1); test: cell-based or functional assay
mouse CB-1 = target: T2, mouse CB-1 (mouse, UniProt P47746 1-473); test: flow cytometry on CHO-Mouse CB1 cells, 3-fold antibody titration from 200 nM
T2 construct: whole, on cells; also called moCB1; moCB1-CHO cells
T2 sequence (P47746 whole entry): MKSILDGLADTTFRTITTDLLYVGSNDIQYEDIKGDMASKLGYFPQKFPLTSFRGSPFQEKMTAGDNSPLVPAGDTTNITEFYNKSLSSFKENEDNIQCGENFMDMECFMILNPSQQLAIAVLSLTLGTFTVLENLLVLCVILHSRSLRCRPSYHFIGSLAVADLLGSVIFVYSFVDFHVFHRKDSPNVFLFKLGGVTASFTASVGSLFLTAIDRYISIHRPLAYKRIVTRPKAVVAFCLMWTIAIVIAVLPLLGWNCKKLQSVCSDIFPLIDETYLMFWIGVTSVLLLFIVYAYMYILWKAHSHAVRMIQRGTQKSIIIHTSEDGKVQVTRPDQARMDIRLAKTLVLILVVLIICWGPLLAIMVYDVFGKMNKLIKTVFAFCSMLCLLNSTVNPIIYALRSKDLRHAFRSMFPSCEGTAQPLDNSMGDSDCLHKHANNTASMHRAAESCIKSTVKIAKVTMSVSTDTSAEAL
Procedure: as §1

[3] = target: T1, human cannabinoid receptor type 1 (CB1); test: flow cytometry, single point at 30 ug/mL antibody, signal on CHO-huCB-1 cells relative to CHO parental cells

| Binder | EC50 [1] | Mean P-ERK (% inhibition) [2] | Mean cAMP (% Amgen) [2] | P-ERK IC50 (nM) Data Set 1 [2] | P-ERK IC50 (nM) Data Set 2 [2] | cAMP EC50 (nM) Data Set 1 [2] | cAMP EC50 (nM) Data Set 2 [2] | cAMP EC50 (nM) Data Set 3 [2] | binding result (mouse CB-1) | binding result [3] |
| --- | --- | --- | --- | --- | --- | --- | --- | --- | --- | --- |
| B1 | 13 nM | 95 % inhibition | 61 % Amgen | 117 nM | 170 nM | 78 nM | 120 nM | 120 nM | no binding (tested: 200 nM) |  |
| B2 | 19.2 nM | 70 % inhibition | 41 % Amgen | 97 nM | 890 nM | 180 nM | 320 nM | 430 nM | no binding (tested: 200 nM) |  |
| B3 | 20.2 nM | 101 % inhibition | 61 % Amgen | 191 nM | 50 nM | 91 nM | 170 nM | 170 nM | no binding (tested: 200 nM) |  |
| B4 | 34.7 nM | 59 % inhibition | 49 % Amgen | 219 nM | 211 nM | 380 nM | 340 nM | 270 nM |  |  |
| B5 | 43.5 nM | 42 % inhibition | 21 % Amgen | 144 nM | 300 nM | 310 nM | 290 nM | 640 nM |  |  |
| B6 |  |  |  |  |  |  |  |  |  | binds |
| B7 |  |  |  |  |  |  |  |  |  | binds |
| B8 |  |  |  |  |  |  |  |  |  | binds |
| B9 |  |  |  |  |  |  |  |  |  | binds |
| B10 |  |  |  |  |  |  |  |  |  | binds |
| B11 |  |  |  |  |  |  |  |  |  | binds |
| B12 |  |  |  |  |  |  |  |  |  | binds |
| B13 |  |  |  |  |  |  |  |  |  | binds |
| B14 |  |  |  |  |  |  |  |  |  | binds |
| B15 | 15.7 nM | 68 % inhibition | 75 % Amgen | 163 nM | 165 nM | 43 nM | 170 nM | 150 nM | no binding (tested: 200 nM) |  |
| B16 | 61.6 nM | 59 % inhibition | 71 % Amgen | 296 nM | 534 nM | 290 nM | 290 nM | 330 nM | no binding (tested: 200 nM) |  |
| B17 | 10.7 nM | 64 % inhibition | 29 % Amgen | 36 nM | 47 nM | 96 nM | 190 nM | 370 nM | no binding (tested: 200 nM) |  |
